Biological target: human CD122/CD132 on cells of human PBMCs (human) (UniProt P14784)
Assay: cell-based or functional assay

Chain of human CD122/CD132 on cells of human PBMCs (human) (P14784 27-551, chain 1 of 2): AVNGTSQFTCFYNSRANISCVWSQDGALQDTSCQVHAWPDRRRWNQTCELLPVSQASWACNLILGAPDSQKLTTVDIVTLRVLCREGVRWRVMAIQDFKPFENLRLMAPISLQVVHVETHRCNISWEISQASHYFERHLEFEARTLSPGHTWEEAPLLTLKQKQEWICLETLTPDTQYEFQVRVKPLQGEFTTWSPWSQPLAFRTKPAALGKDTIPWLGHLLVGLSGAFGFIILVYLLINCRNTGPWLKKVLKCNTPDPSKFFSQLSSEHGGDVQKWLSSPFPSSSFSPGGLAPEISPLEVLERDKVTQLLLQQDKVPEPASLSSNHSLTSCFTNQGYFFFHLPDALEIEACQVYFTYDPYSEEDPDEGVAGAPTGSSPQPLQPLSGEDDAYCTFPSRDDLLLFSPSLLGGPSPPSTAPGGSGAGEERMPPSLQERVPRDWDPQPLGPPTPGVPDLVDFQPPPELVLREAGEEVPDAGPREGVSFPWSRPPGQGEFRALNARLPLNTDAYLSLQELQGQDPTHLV
Chain of human CD122/CD132 on cells of human PBMCs (human) (P31785 23-369, chain 2 of 2, further chain): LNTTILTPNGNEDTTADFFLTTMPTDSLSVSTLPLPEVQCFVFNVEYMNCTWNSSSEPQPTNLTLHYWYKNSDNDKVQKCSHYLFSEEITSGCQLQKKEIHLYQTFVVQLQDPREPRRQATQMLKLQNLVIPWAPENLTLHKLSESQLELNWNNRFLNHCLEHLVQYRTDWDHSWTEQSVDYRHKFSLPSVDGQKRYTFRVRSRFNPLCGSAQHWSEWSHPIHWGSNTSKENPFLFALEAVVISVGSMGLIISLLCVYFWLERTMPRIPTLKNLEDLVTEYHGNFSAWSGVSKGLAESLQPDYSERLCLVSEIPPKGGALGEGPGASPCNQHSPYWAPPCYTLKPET

| Binder | pSTAT5 EC50 on human CD8+cm T cells (hPBMC) [nM] | pSTAT5 EC50 on human NK cells (hPBMC) [nM] |
| --- | --- | --- |
| Isotype control--IL15 M1 (protein, part only; not given: Isotype control antibody chains and linker, part only) heavy, part: AWVNVISDLKKIEDLIQSMHIDATLYTESNVHPSCKVTAMKCFLLGLQRISLESGDASIHDTVENLIILANNSLSSNGNVTESGCKECEELEEKNIKEFLQSFVHIVQMFINTS | 3.67 | 0.946 |
| Isotype control--IL15 M2 (protein, part only; not given: Isotype control antibody chains and linker, part only) heavy, part: GWVNVISDLKKIEDLIQSMHIDATLYTESNVHPSCKVTAMKCFLLGLQRISLESGDASIHDTVQNLIILANNSLSSNGNVTESGCKECEELEEKNIKEFLQSFVHIVQMFINTS | 37.6 | 11.2 |

From patent publication US20210324028A1
